Reference: patent US20090203610A1, “METHODS OF TREATING OBESITY OR DIABETES USING NT-4/5” (RINAT NEUROSCIENCE CORPORATION, priority 2004, published 2009)

Legend:
[1] = tested on: NONcNZO-10 polygenic obese mice; experiment: Pegylated NT-4/5 cysteine mutant on body weight, food intake, glucose, triglyceride in NONcNZO-10 mice (Example 6); format: in vivo; conditions: 2 mg/kg/week injection
human TrkB = target: T1, human TrkB (Homo sapiens, UniProt Q16620); experiment: Receptor tyrosine phosphorylation (KIRA) in TrkB expressing cell line; format: cell-based
T1 construct: expressed in transfected cells
T1 sequence (Q16620 32-822): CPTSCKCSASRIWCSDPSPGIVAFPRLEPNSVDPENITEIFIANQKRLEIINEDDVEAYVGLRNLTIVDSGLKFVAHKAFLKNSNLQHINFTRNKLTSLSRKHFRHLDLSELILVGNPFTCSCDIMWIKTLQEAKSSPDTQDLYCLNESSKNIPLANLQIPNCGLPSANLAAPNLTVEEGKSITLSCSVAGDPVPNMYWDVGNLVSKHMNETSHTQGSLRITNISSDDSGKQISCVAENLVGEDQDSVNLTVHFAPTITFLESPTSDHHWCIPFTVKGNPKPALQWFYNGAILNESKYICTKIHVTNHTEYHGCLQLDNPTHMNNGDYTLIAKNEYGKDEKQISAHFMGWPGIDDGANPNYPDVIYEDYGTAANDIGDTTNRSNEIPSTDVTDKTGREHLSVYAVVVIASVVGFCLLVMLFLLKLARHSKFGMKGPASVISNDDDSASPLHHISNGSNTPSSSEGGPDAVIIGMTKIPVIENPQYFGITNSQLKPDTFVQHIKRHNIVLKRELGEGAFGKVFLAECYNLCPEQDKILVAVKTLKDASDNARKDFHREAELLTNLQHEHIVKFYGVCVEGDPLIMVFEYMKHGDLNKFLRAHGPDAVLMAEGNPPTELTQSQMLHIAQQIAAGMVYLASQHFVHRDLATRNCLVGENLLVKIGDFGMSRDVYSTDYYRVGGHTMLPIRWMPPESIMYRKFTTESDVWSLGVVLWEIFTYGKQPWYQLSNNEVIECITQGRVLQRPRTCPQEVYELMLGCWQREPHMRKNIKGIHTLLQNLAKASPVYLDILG
Excerpt: Method of making pegylated NT-4/5 (S50C): The native form of NT-4/5 used in this study was produced according to the method described in U.S. Pat. No. 6,184,360. A site-directed pegylated NT-4/5 was also produced. The structure of NT-4/5 in complex with domain 5 of TrkB was examined to find amino acid side chains that would be surface available and unlikely to interfere with natural disulfide bonds and also unlikely to interfere in either the interactions between the monomer subunits of NT-4/5 or the TrkB domain 5 to create a PEG attaching site. […] […] Mutant proteins were expressed in E. coli, solubilized, extracted, purified and refolded as the native NT-4/5. To pegylate the refolded NT4-S50C, NT4-Q105C, and NT-4-E67C, first a mild reduction with 0.1 mM DTT (dithiothreitol) was performed. Excess DTT was removed by dialysis against 50 mM sodium acetate at pH 6, then a 5 molar excess of mPEG-maleimide (M. W. of 10,000 Da, SunBio, Inc., South Korea) was incubated with the protein at 37° C. for several days with gentle agitation. Pegylated protein, non-pegylated protein and unreacted PEG were separated via ion exchange or size exclusion chromatography.
(§1) Assays of TrkB specific activation by pegylated NT-4/5: Stable cell lines expressing human TrkA, TrkB or TrkC were used to determine the functional activity, i.e. receptor phosphorylation, of NT-4/5 and pegylated NT-4/5 as previously described (Sadick et al. Experimental Cell Research 234: 354-361, 1997).
as §1, with “and different forms of” for “and”

db/db mice [2] = experiment: Daily food intake after single injection of NT-4/5 or pegylated NT-4/5 in db/db mice (Example 7, Table 22); format: in vivo; conditions: for Daily food intake: single s.c. injection 5 mg/kg, db/db mice, mean
Procedure: (§2) Test animals: 30 female db/db mice at 7 weeks of age weighing in the range of 27-34 g were used in this study.
(§3) Administration of NT-4/5 and pegylated NT-4/5: Wild type NT-4/5 was obtained from Genentech Inc. The mice were divided into 5 groups of equivalent body weight distribution (6 mice per group). Each group received on the first day (day 1) of the study one and the only dose of either vehicle, 5 mg/kg of NT-4/5 produced as described above, 5 mg/kg of 2PEG-NT4-G1S, or 5 mg/kg of 1PEG-NT4-G1S. 2PEG-NT4-G1S represents one PEG molecule was conjugated to each NT-4/5 monomer in a NT-4/5 dimer, and 1PEG-NT4-G1S represents one PEG molecule was conjugated to only one monomer of the NT-4/5 dimer. 2PEG-NT4-G1S and 1PEG-NT4-G1S were separated by ion exchange. Four days before starting the treatment (day −4), blood samples were collected from the mice as described previously for the determination of baseline levels of serum glucose. On day 4 after the treatment started, blood samples were collected again to determine serum glucose level. Body weight and food intake were monitored 5 days a week through out the entire study.

db/db mice [3] = experiment: Body weight after single injection of NT-4/5 or pegylated NT-4/5 in db/db mice (Example 7, Table 21); format: in vivo; conditions: for Body weight expressed in percentage of baseline value: single 5 mg/kg dose on day 1
Procedure: as §2, §3

[4] = Serum half life after single subcutaneous dose in db/db mice (Example 7); format: in vivo
Excerpt: In addition, pegylated NT-4/5 has extended half life in vivo.

human TrkC = target: T2, human TrkC (Homo sapiens, UniProt Q16288); experiment: Receptor tyrosine phosphorylation in trkC expressing cell line; format: cell-based
T2 construct: expressed in transfected cells
T2 sequence (Q16288 32-839): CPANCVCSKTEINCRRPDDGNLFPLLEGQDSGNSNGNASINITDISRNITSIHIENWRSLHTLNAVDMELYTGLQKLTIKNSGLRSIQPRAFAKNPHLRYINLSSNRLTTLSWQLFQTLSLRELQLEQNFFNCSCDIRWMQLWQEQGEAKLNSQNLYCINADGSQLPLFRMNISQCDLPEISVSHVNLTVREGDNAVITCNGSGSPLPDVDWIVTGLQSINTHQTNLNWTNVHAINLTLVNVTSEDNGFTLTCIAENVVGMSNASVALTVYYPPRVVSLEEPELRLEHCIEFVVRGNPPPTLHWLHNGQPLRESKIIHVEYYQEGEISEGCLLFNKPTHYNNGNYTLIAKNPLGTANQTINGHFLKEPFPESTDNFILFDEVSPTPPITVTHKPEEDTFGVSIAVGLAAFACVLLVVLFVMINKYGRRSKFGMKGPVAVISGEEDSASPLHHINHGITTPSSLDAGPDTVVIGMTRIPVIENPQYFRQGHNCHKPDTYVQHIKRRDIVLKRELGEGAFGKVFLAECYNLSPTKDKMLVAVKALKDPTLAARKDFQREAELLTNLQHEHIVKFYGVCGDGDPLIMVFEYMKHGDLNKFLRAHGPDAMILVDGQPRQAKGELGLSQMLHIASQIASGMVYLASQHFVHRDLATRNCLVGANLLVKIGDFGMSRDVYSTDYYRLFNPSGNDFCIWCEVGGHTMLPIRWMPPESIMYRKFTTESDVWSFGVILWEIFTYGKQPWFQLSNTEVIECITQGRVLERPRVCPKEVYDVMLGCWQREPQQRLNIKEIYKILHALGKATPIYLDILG
Excerpt: as §1
as §1, with “and different forms of” for “and”

db/db mice [5] = experiment: Non-fasting serum glucose after single injection in db/db mice (Example 7); format: in vivo; conditions: after 4 days; single subcutaneous injection, 5 mg/kg
Procedure: as §2, §3

human TrkA = target: T3, human TrkA (Homo sapiens, UniProt P04629); experiment: Receptor tyrosine phosphorylation in trkA expressing cell line; format: cell-based
T3 construct: expressed in transfected cells
T3 sequence (P04629 33-796): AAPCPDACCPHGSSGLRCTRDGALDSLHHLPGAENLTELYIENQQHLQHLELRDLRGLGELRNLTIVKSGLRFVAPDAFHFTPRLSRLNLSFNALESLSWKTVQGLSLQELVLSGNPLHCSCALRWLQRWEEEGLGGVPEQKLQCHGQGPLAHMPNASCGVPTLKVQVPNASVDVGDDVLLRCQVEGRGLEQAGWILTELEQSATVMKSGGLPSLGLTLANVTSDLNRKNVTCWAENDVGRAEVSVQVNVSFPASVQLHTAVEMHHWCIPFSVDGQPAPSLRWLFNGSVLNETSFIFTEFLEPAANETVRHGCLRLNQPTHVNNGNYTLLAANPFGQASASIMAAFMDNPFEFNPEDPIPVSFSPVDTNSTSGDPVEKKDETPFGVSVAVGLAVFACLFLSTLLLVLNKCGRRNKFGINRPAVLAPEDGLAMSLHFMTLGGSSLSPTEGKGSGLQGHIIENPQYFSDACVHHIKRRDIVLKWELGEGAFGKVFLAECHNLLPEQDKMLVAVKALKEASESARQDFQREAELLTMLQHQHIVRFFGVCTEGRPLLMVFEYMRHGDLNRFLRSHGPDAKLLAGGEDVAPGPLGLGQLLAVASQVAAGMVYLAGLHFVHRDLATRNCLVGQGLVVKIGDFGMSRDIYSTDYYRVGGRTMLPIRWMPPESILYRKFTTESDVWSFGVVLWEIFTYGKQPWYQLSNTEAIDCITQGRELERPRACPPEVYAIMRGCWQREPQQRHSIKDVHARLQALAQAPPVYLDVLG
Excerpt: as §1
as §1, with “and different forms of” for “and”

[6] = single subcutaneous injection, 5 mg/kg, significantly

Molecule	in vivo activity (body weight, food intake, glucose or triglyceride) [1]	receptor tyrosine phosphorylation of TrkB-expressing cell line (human TrkB)	Daily food intake (db/db mice [2]; Day 1) [g/day]	Daily food intake (db/db mice [2]; Day 2) [g/day]	Daily food intake (db/db mice [2]; Day 3) [g/day]	Daily food intake (db/db mice [2]; Day 4) [g/day]	food intake (db/db mice [2]; [6])	Body weight expressed in percentage of baseline value (db/db mice [3]; Day 1)	Body weight expressed in percentage of baseline value (db/db mice [3]; Day 2)	Body weight expressed in percentage of baseline value (db/db mice [3]; Day 3)	Body weight expressed in percentage of baseline value (db/db mice [3]; Day 4)	body weight growth (db/db mice [3]; [6])	absolute protein levels relative to native NT-4/5 ([4]; at any given time point)	serum half life ([4]; single subcutaneous dose of 4 mg/kg in db/db mice, estimated) [h]	receptor tyrosine phosphorylation of trkC-expressing cell line (human TrkC)	non-fasting serum glucose levels (db/db mice [5])	receptor tyrosine phosphorylation of trkA-expressing cell line (human TrkA)
Pegylated mutant NT-4/5 (Q105C): NT-4/5 with residue 105 changed to cysteine, pegylated with mPEG-maleimide (10,000 Da) (conjugate) GVSETAPASRRGELAVCDAVSGWVTDRRTAVDLRGREVEVLGEVPAAGGSPLRQYFFETRCKADNAEEGGPGAGGGGCRGVDRRHWVSECKAKQSYVRALTADACGRVGWRWIRIDTACVCTLLSRTGRA	inactive in vivo	preserved TrkB receptor agonist activity															
2PEG-NT4-G1S: NT4-G1S dimer with one 20 kDa PEG molecule conjugated to each NT-4/5 monomer (conjugate) SVSETAPASRRGELAVCDAVSGWVTDRRTAVDLRGREVEVLGEVPAAGGSPLRQYFFETRCKADNAEEGGPGAGGGGCRGVDRRHWVSECKAKQSYVRALTADAQGRVGWRWIRIDTACVCTLLSRTGRA		increased receptor tyrosine phosphorylation	6.7	5.3	5.8	6.2	reduced	100.0 % of baseline	97.3 % of baseline	98.4 % of baseline	100.1 % of baseline	reduced the body weight growth	several orders of magnitude higher	12.7 to 16	did not increase receptor tyrosine phosphorylation	showed a tendency to reduce	did not increase receptor tyrosine phosphorylation
